Laboratory results reported in US7655771B1, “Polymorphisms in the human cyp3a4 and cyp3a7 genes and their use in diagnostic and therapeutic applications” (PGx Health, LLC, priority 1999, dated 2010).
Where “and” joins values, the source holds several entries; their conditions need not be identical. Equal entries are not always repeated. Marks after values point to notes of the source that are not given here.

How the values were obtained:
[1] = tested on: CYP3A4; test: Testosterone hydroxylase activity of wild-type and mutant CYP3A4 proteins (reconstituted with NADPH-cytochrome P450 reductase and cytochrome b5); type: biochemical, human; conditions: for Testosterone hydroxylase activity relative to wild-type CYP3A4: 25 μM testosterone (lower steroid concentration)
Procedure: (§1) Mutants were expressed in E. coli TOPP3 cells. Cultures of each strain were started from single colonies in 2-ml of LB media containing ampicillin (50 μg/ml) and tetracycline (15 μg/ml) and grown overnight at 37° C. with shaking. Larger, 20-ml cultures of each sample were inoculated and grown as described for the 2-ml cultures. Starter cultures (15 ml) were inoculated into 250-ml of TB media containing ampicillin (50 μg/ml) and grown 2-3 hr at 37° C. at 250 rpm. δ-aminolevulinic acid (80 mg/L) and IPTG (1 mM) were added and the cultures grown 72 hr at 30° C. at 190 rpm. The cells were harvested, sonicated and CHAPS solubilized, and the protein was purified on Talon Metal Affinity resin from Clontech (Palo Alto, Calif.). Final P450 content was measured by reduced CO difference spectra (Omura, J Biol Chem 239 (1964), 2370-2378), and each protein was visualized on an 8.5% SDS PAGE gel stained with Coomassie blue. Western Blot analysis of CYP3A4 wild-type, M2, M5 and M7 was performed by resolving 1 pmol of 3A4 wildtype and M5, and 8 μl of M2 and M7 total protein sample on an 8.5% SDS PAGE gel. The samples were then transferred to nitrocellulose and probed with an anti-3A12 polyclonal antibody known to cross-react with CYP3A4 (Ciaccio, Arch Biochem Biophys 271 (1989), 284-99).
(§2) Following the reconstitution with NADPH-cytochrome P450 reductase and cytochrome b5, the catalytical activities of M1, M4, M5 and M6 variants were measured using testosterone, progesterone and 7-BFC as substrates (Tables 5-7).

[2] = tested on: CYP3A4; test: Progesterone hydroxylase activity of wild-type and mutant CYP3A4 proteins; type: biochemical, human
Procedure: as §1, §2

[3] = tested on: CYP3A4; test: 7-Benzyloxy-4-(trifluoromethyl)coumarin (7-BFC) debenzylase activity of wild-type and mutant CYP3A4 proteins; type: biochemical, human; conditions: for 7-BFC debenzylase activity, 7-hydroxy-4-(trifluoromethyl)coumarin: substrate 7-BFC
Procedure: as §1, §2

[4] = tested on: CYP3A4 holoenzyme; test: Expression of CYP3A4 holoenzyme in E. coli, reduced CO difference spectra; design: species or system human
Procedure: as §1
The effect of the protein variants on the expression level and catalytical activity of CYP3A4 was investigated using a bacterial CYP3A4 expression system. Sequence variants were introduced into the pSE3A4H expression vector (Harlow, J Biol Chem 272 (1997), 5396-402) which encodes for a CYP3A4 protein identical to that found in most Caucasians. No other, unwanted mutations were introduced into the CYP3A4 insert or the promoter driving its expression as confirmed by sequencing. Mutants M1-M8 were expressed in E. coli as described in Example 5, the expression of the CYP3A4 holoenzyme assessed by measuring reduced CO difference spectra, and the protein purified. All but M2, M5 and M7 mutants were detectable at levels similar to CYP3A4. […] The expression of M2, M5, and M7 was further investigated by Western Blotting using an anti-CYP3A12 polyclonal antibody known to cross-react with CYP3A4 (Ciaccio, Arch Biochem Biophys 271 (1989), 284-99) as described in Example 5.

[5] = tested on: CYP3A4; test: Western blot with anti-CYP3A12 polyclonal antibody; design: species or system human
Procedure: FIG. 7: Immunoblot of wild-type CYP3A4 (3A4), R130Q (M2), T363M (M5), and P416L (M7). P450 (1 pmol) was loaded into each lane, transferred to nitrocellulose, and probed with anti-3A12 IgG as described in Materials and Methods.
as §1
The effect of the protein variants on the expression level and catalytical activity of CYP3A4 was investigated using a bacterial CYP3A4 expression system. Sequence variants were introduced into the pSE3A4H expression vector (Harlow, J Biol Chem 272 (1997), 5396-402) which encodes for a CYP3A4 protein identical to that found in most Caucasians. […] Mutants M1-M8 were expressed in E. coli as described in Example 5, the expression of the CYP3A4 holoenzyme assessed by measuring reduced CO difference spectra, and the protein purified. […]

[6] = target: T1, CYP3A4 (Homo sapiens, UniProt P08684, D174H); test: Progesterone hydroxylase activity of wild-type and mutant CYP3A4 proteins; type: biochemical; conditions: lower steroid concentration
T1 construct: made in house; host or cells: E. coli TOPP3
T1 sequence (P08684 2-503 D174H): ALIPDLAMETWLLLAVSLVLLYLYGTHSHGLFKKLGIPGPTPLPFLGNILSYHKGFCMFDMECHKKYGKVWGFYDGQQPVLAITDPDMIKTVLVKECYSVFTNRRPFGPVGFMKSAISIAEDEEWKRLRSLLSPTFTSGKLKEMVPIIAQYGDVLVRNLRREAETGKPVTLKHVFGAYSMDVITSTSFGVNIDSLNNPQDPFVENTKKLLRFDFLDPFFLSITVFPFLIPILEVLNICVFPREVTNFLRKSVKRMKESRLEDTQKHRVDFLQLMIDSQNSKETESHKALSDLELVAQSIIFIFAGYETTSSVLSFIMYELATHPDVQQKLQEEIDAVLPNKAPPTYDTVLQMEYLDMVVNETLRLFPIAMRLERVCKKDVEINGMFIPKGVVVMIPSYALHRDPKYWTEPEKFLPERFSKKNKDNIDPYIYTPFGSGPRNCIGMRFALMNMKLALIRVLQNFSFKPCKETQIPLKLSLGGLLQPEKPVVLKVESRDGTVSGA
Procedure: as §1, §2

[7] = target: T2, CYP3A4 (Homo sapiens, UniProt P08684, T363M); test: Testosterone hydroxylase activity of wild-type and mutant CYP3A4 proteins (reconstituted with NADPH-cytochrome P450 reductase and cytochrome b5); type: biochemical; conditions: Table 5
T2 construct: made in house; host or cells: E. coli TOPP3
T2 sequence (P08684 2-503 T363M): as the sequence (P08684 2-503 D174H) above, with H173D, T362M counted along it
Procedure: as §1, §2

[8] = target: T2, CYP3A4; test: Progesterone hydroxylase activity of wild-type and mutant CYP3A4 proteins; type: biochemical; conditions: Table 6
Procedure: as §1, §2

[9] = target: T2, CYP3A4; test: 7-Benzyloxy-4-(trifluoromethyl)coumarin (7-BFC) debenzylase activity of wild-type and mutant CYP3A4 proteins; type: biochemical; conditions: Table 7
Procedure: as §1, §2

[10] = E. coli expression, reduced CO difference spectra

## M1: CYP3A4 protein variant G56D (g.6004G>A, exon 3) [Mutant M1]
[1]
  Testosterone hydroxylase metabolite profile compared with wild-type CYP3A4: Neither M1 nor M4 mutant displayed alterations
  Testosterone hydroxylase activity relative to wild-type CYP3A4: 53%
[1]; 25 μM testosterone
  Testosterone hydroxylase activity, 2β-OH: <0.1, <0.1 nmol product/min/nmol protein
  Testosterone hydroxylase activity, 6β-OH: 5.1 nmol product/min/nmol protein and 4.8 nmol product/min/nmol protein
  Testosterone hydroxylase activity, 15β-OH: 0.2, 0.2 nmol product/min/nmol protein
[1]; 400 μM testosterone
  Testosterone hydroxylase activity, 2β-OH: 5.4 nmol product/min/nmol protein and 6.9 nmol product/min/nmol protein
  Testosterone hydroxylase activity, 6β-OH: 32.1, nmol product/min/nmol protein and 32.2^b nmol product/min/nmol protein
  Testosterone hydroxylase activity, 15β-OH: 1.2 nmol product/min/nmol protein and 1.1 nmol product/min/nmol protein
[2]
  Progesterone (steroid) hydroxylase metabolite profile compared with wild-type CYP3A4: Neither M1 nor M4 mutant displayed alterations
[2]; 25 μM progesterone
  Progesterone hydroxylase 6β/16α ratio: 5.6, 5.6
  Progesterone hydroxylase activity, 6β-OH: 7.8, nmol product/min/nmol protein and 7.9^b nmol product/min/nmol protein
  Progesterone hydroxylase activity, 16α-OH: 1.4, 1.4 nmol product/min/nmol protein
[2]; 150 μM progesterone
  Progesterone hydroxylase 6β/16α ratio: 5.1, 5.1
  Progesterone hydroxylase activity, 6β-OH: 21.3, nmol product/min/nmol protein and 21.3^b nmol product/min/nmol protein
  Progesterone hydroxylase activity, 16α-OH: 4.2, 4.2 nmol product/min/nmol protein
[3]
  7-BFC debenzylase activity relative to CYP3A4: 137%

## M2: CYP3A4 protein variant R130Q (g.13908G>A, exon 5) [Mutant M2]
[4]
  Effect of mutation on expression of CYP3A4 holoenzyme (conclusion): abolish
[4]; [10]
  Detectable P450 holoprotein, in words: no detectable P450 holoprotein
[5]
  Band in immunoblot: Bands of the expected size

## M4: CYP3A4 protein variant D174H (g.14304G>C, exon 6) [Mutant M4]
[1]
  Testosterone hydroxylase metabolite profile compared with wild-type CYP3A4: Neither M1 nor M4 mutant displayed alterations
  Testosterone hydroxylase activity relative to wild-type CYP3A4: < 50%
[1]; 25 μM testosterone
  Testosterone hydroxylase activity, 2β-OH: <0.1, <0.1 nmol product/min/nmol protein
  Testosterone hydroxylase activity, 6β-OH: 4.4 nmol product/min/nmol protein and 3.9 nmol product/min/nmol protein
  Testosterone hydroxylase activity, 15β-OH: 0.1, 0.1 nmol product/min/nmol protein
[1]; 400 μM testosterone
  Testosterone hydroxylase activity, 2β-OH: 5.3 nmol product/min/nmol protein and 5.6 nmol product/min/nmol protein
  Testosterone hydroxylase activity, 6β-OH: 32.4 nmol product/min/nmol protein and 29.8 nmol product/min/nmol protein
  Testosterone hydroxylase activity, 15β-OH: 1.3 nmol product/min/nmol protein and 0.9 nmol product/min/nmol protein
[6]
  Progesterone hydroxylase activity relative to wild-type CYP3A4: < 50%
[2]
  Progesterone (steroid) hydroxylase metabolite profile compared with wild-type CYP3A4: Neither M1 nor M4 mutant displayed alterations
[2]; 25 μM progesterone
  Progesterone hydroxylase activity, 6β-OH: 5.5 nmol product/min/nmol protein and 5.4 nmol product/min/nmol protein
  Progesterone hydroxylase activity, 16α-OH: 0.5, 0.5 nmol product/min/nmol protein
[2]; 150 μM progesterone
  Progesterone hydroxylase 6β/16α ratio: 5.5 and 5.9
  Progesterone hydroxylase activity, 6β-OH: 21.4 nmol product/min/nmol protein and 18.4 nmol product/min/nmol protein
  Progesterone hydroxylase activity, 16α-OH: 3.9 nmol product/min/nmol protein and 3.1 nmol product/min/nmol protein
[3]
  7-BFC debenzylase activity relative to CYP3A4: < 50%
  7-BFC debenzylase activity, 7-hydroxy-4-(trifluoromethyl)coumarin: 2.3 nmol product/min/nmol protein and 1.9 nmol product/min/nmol protein

## M5: CYP3A4 protein variant T363M (g.21867C>T, exon 11) [Mutant M5]
[7]
  Testosterone hydroxylase activity compared with wild-type protein, in words: approximately half that of wild-type protein
[1]; 25 μM testosterone
  Testosterone hydroxylase activity, 2β-OH: <0.1, <0.1 nmol product/min/nmol protein
  Testosterone hydroxylase activity, 6β-OH: 5.1^c nmol product/min/nmol protein
  Testosterone hydroxylase activity, 15β-OH: 0.1 nmol product/min/nmol protein
[1]; 400 μM testosterone
  Testosterone hydroxylase activity, 2β-OH: 3.6 nmol product/min/nmol protein
  Testosterone hydroxylase activity, 6β-OH: 19.5^c nmol product/min/nmol protein
  Testosterone hydroxylase activity, 15β-OH: 0.7 nmol product/min/nmol protein
[8]
  Progesterone hydroxylase activity compared with wild-type protein, in words: approximately half that of wild-type protein
[2]; 25 μM progesterone
  Progesterone hydroxylase 6β/16α ratio: 9.8
  Progesterone hydroxylase activity, 6β-OH: 5.9^c nmol product/min/nmol protein
  Progesterone hydroxylase activity, 16α-OH: 0.6 nmol product/min/nmol protein
[2]; 150 μM progesterone
  Progesterone hydroxylase 6β/16α ratio: 5.4
  Progesterone hydroxylase activity, 6β-OH: 16.6^c nmol product/min/nmol protein
  Progesterone hydroxylase activity, 16α-OH: 3.1 nmol product/min/nmol protein
[9]
  7-BFC debenzylase activity compared with wild-type protein, in words: approximately half that of wild-type protein
[3]
  7-BFC debenzylase activity, 7-hydroxy-4-(trifluoromethyl)coumarin: 2.9^c nmol product/min/nmol protein
[4]
  Effect of mutation on expression of CYP3A4 holoenzyme (conclusion): diminishes
  Stability of the protein (consistency of P450 measurements in multiple determinations): some instability
[4]; [10]
  Expression level of P450 holoenzyme relative to CYP3A4: less than 10%

## M6: CYP3A4 protein variant L373F (g.21896C>T, exon 11) [Mutant M6]
[1]
  Testosterone hydroxylase metabolite profile compared with wild-type CYP3A4: strikingly altered testosterone hydroxylase metabolite profile
[1]; 25 μM testosterone
  Testosterone hydroxylase activity, 2β-OH: 3.5 nmol product/min/nmol protein and 2.8 nmol product/min/nmol protein
  Testosterone hydroxylase activity, 6β-OH: 10.1 nmol product/min/nmol protein and 8.6 nmol product/min/nmol protein
  Testosterone hydroxylase activity, 15β-OH: 1.7 nmol product/min/nmol protein and 1.3 nmol product/min/nmol protein
[1]; 400 μM testosterone
  Testosterone hydroxylase activity, 2β-OH: 29.2, nmol product/min/nmol protein and 36.3 nmol product/min/nmol protein
  Testosterone hydroxylase activity, 6β-OH: 45.3 nmol product/min/nmol protein and 58.8 nmol product/min/nmol protein
  Testosterone hydroxylase activity, 15β-OH: 5.9 nmol product/min/nmol protein and 7.7 nmol product/min/nmol protein
[2]; 25 μM progesterone
  Progesterone hydroxylase 6β/16α ratio: 7.5 and 7.7
  Progesterone hydroxylase activity, 6β-OH: 15.8, nmol product/min/nmol protein and 12.3 nmol product/min/nmol protein
  Progesterone hydroxylase activity, 16α-OH: 2.1 nmol product/min/nmol protein and 1.6 nmol product/min/nmol protein
[2]; 150 μM progesterone
  Progesterone hydroxylase 6β/16α ratio: 7.9 and 7.7
  Progesterone hydroxylase activity, 6β-OH: 40.1 nmol product/min/nmol protein and 49.8 nmol product/min/nmol protein
  Progesterone hydroxylase activity, 16α-OH: 5.1 nmol product/min/nmol protein and 6.5 nmol product/min/nmol protein
[3]
  7-BFC debenzylase activity, 7-hydroxy-4-(trifluoromethyl)coumarin: 4.5 nmol product/min/nmol protein and 5.2 nmol product/min/nmol protein

## M7: CYP3A4 protein variant P416L (g.22026C>T, exon 11) [Mutant M7]
[4]
  Effect of mutation on expression of CYP3A4 holoenzyme (conclusion): abolish
[4]; [10]
  Detectable P450 holoprotein, in words: no detectable P450 holoprotein
[5]
  Band in immunoblot: Only a very faint band

## WT: wild-type CYP3A4 protein encoded by pSE3A4H vector, identical to that found in most Caucasians, expressed in E. coli [reference compound]
[1]; 25 μM testosterone
  Testosterone hydroxylase activity, 2β-OH: 0.2 nmol product/min/nmol protein
  Testosterone hydroxylase activity, 6β-OH: 9.3^a nmol product/min/nmol protein
  Testosterone hydroxylase activity, 15β-OH: 0.4 nmol product/min/nmol protein
[1]; 400 μM testosterone
  Testosterone hydroxylase activity, 2β-OH: 3.0 nmol product/min/nmol protein
  Testosterone hydroxylase activity, 6β-OH: 41.6^a nmol product/min/nmol protein
  Testosterone hydroxylase activity, 15β-OH: 1.2 nmol product/min/nmol protein
[2]; 25 μM progesterone
  Progesterone hydroxylase 6β/16α ratio: 7.1
  Progesterone hydroxylase activity, 6β-OH: 12.1^a nmol product/min/nmol protein
  Progesterone hydroxylase activity, 16α-OH: 1.7 nmol product/min/nmol protein
[2]; 150 μM progesterone
  Progesterone hydroxylase 6β/16α ratio: 5.0
  Progesterone hydroxylase activity, 6β-OH: 32.1^a nmol product/min/nmol protein
  Progesterone hydroxylase activity, 16α-OH: 6.4 nmol product/min/nmol protein
[3]
  7-BFC debenzylase activity, 7-hydroxy-4-(trifluoromethyl)coumarin: 6.5^a nmol product/min/nmol protein
[5]
  Band in immunoblot: Bands of the expected size
